Source: patent US20260265391A1 (BIOTHEUS, published 2026)

Tests used:
[1] = target: T1, cynomolgus CD40-Fc protein (cynomolgus, UniProt G7PG38 21-193); assay: BLI (ForteBio), IgG on AHQ sensor, 100 nM CD40-Fc in solution, bivalent, 1:1 model
T1 construct: not shown: Fc part
Method: (§1) The antibody-loaded sensor was further incubated in a high concentration of irrelevant intact antibody solution for 10 minutes to saturate and block the Fc binding sites on the AHQ sensor. The blocked sensor was then incubated with 100 nM CD40-Fc antigen until a plateau was reached, and then the sensor was transferred to the analysis buffer for at least 2 minutes for dissociation rate measurement. Kinetic analysis was performed using a 1:1 binding model.

human CD40-Fc protein = target: T2, human CD40-Fc protein (human, UniProt P25942 21-193); assay: as above
T2 construct: also called human CD40-Fc fusion protein; CD40-Fc antigen; not shown: Fc part
T2 sequence (P25942 21-193 limits assumed): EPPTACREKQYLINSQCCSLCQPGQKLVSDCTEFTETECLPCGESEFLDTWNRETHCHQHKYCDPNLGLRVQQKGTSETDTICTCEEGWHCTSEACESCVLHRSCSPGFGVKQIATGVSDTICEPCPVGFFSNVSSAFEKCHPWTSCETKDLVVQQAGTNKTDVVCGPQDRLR
Method: as §1

[2] = target: T3, human CD40 overexpressed on cells (human, UniProt P25942 21-277); assay: cell-based or functional assay
T3 sequence (P25942 21-277 limits assumed): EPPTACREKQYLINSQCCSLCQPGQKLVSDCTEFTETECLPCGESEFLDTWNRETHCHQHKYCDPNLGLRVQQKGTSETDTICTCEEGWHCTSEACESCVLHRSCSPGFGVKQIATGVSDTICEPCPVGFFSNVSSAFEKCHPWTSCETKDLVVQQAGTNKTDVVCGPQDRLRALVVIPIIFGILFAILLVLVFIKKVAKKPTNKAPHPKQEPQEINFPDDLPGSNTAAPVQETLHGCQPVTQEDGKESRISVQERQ

[3] = target: T3, human CD40 overexpressed on cells; assay: cell-based or functional assay; remark: listed apart in the source
[4] = target: T3, human CD40 overexpressed on cells; assay: cell-based or functional assay; remark: listed apart in the source
[5] = target: T3, human CD40 overexpressed on cells; assay: flow cytometry on CHO-S cells overexpressing human CD40
Method: (§2) Specifically, by transfecting the pCHO1.0 vector (Invitrogen) with the human/cynomolgus CD40 cDNA cloned into the MCS and followed by applying pressure selection, CHO-S cells overexpressing human/cynomolgus CD40 were generated. The expanded CD40 overexpressing cells were adjusted to the appropriate cell density and plated on 96-well flow plate. After centrifugation, the cells were incubated with a gradient-diluted sample at 4° C. for 30 minutes. and the cells were then washed twice with PBS, and followed by incubation with a fluorescent secondary antibody diluted to the appropriate concentration, at 4° C. for 30 min. Following two washes with PBS, cells were resuspended in PBS and fluorescent signals were detection on the CytoFlex flow cytometer to calculate the corresponding MFI.

[6] = target: T4, cynomolgus CD40 overexpressed on CHO-S cells (cynomolgus, UniProt G7PG38 21-278); assay: flow cytometry on CHO-S cells overexpressing cynomolgus CD40
T4 construct: whole, on cells; also called cynomolgus CD40 expressing CHO cells
Method: as §2

B1: ADI-47720 (antibody, human IgG1, kappa, V domains shown)
VH: EVQLVESGGGLVQPGRSLRLSCAASGFTFDDYAMHWVRQAPGKGLEWVSGISWSSGSIGYADSVKGRFTISRDNAKNSLYLQMNSLRAEDTAVYYCAKDPTATTGARGYFDLWGRGTLVTVSS
VL: DIQMTQSPSSVSASVGDRVTITCRASQGISSWLAWYQQKPGKAPKLLIYAASSLQSGVPSRFSGSGSGTDFTLTISSLQPEDFATYYCQQRASFPPTFGGGTKVEIKR
Kd [1]: 6.07 nM | Kd (human CD40-Fc protein): 9.32 nM | EC50 of the CD40-NFkB reporter gene assay (without beads cross-linking) [2]: ~1070 nM | Signal amplification with bead crosslinking (NFkB-Luc2P reporter, U2OS cells overexpressing human CD40) [3]: 11.5 | Signal amplification without bead crosslinking (NFkB-Luc2P reporter, U2OS cells overexpressing human CD40) [3]: 1.3 | EC50 of the CD40-NFkB reporter gene assay (with beads cross-linking) [4]: 304 nM | EC50 [5]: 4.82 nM | EC50 [6]: 5.54 nM
